B1: TPR t1 (parent)
chain: GACCAAUCUGCCCUCAGAGCUCGAGAACAUCUUCGGAUGCAGAGGAGGCAGGCUUCGGUGGCGCGAUAGCGCCAACGUCCUCAACCUCCAAUGCAUCCCACCACAUGAUGAUGCCUGAAGAGCCUUGGUUUUUUG

Variants of: B1
Assay: polymerase ribozyme fitness, log enrichment relative to wild type (log ratio); higher = more active; in vitro selection for triplet polymerase activity
Outline: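 Mutant libraries of both subunits of a heterodimeric triplet polymerase ribozyme were PCR-built, transcribed, and selected once in triplicate, with frozen incubation at −7 °C and capture of gel-excised extended constructs on streptavidin beads before RT-PCR. Illumina sequencing of input and output libraries was filtered to genotypes with ≥10 input reads and ≥1 read per output. Fitness is the logarithm of genotype enrichment over wild-type enrichment, using inverse-variance-weighted replicate averages. The logarithm is base 2.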

Variant | polymerase ribozyme fitness (log ratio)
GACCAAUCUUCCCUCAGUGCUCGAGAACAUCUUCGGAUGCAGAGGAGGCAGGCUUCGGUGGCGCGAUAGUGCCAACGUCCUCAACCUCCAAUGCAUCCCACCACAUGAUGAUGCCUGAAGAGCCUUGGUUUUUUG [G10U A18U C70U] | -4.05
GACCAAUCUUCCCUCAGAGCUCGAGUACAUCUUCGGAUCCAGAGGAGGCAGGCUUCGGUGGCGCGAUAGCGCCAACGUCCUCAACCUCUAAUGCAUCCCACCACAUGAUGAUGCCUGAAGAGCCUUGGUUUUUUG [G10U A26U G39C C89U] | -5.19
GACCAAUCUUCCCUCAGAGCUCGAGAACAUCUUCGGAUGCAGAGGAGGUAGGCUUCAGUGGCGCGAUAGCGCCAACGUCCUCAACCUCCAAUGCAUCCCACCACACGAUGAUGCCUGAAGAGCCUUGGUUUUUUG [G10U C49U G57A U106C] | -2.46
GACCAAUCUUCCCUCAGAGCUCGAGAACAUCUUCGGAUGCAGAGGAGGCAGGCUUCGGUGGCGCGAUAGCGCCAACGUCCUCAACCUCCAAUGCAUCCCUCCACAUGAUGAUGCCUGAAGAGCCUUGGUUUUUUG [G10U A100U] | -1.18
GACCAAUCUUCCCUCAGAGCUCGAGAACAUCUUCGGUUGCAGAGGAGGCAGGCUUCGGUGGCGCGAUAGCGCCAACGUCCUCAACCUCCAAUGCAUCCCACCACAUGAUGAUGCCUGAAGAGCCUUGGUUUUUUG [G10U A37U] | -0.888
GACCAAUCUUCCCUCAGAGCUCGAGAACAUCUUGGGAUGCAGAGGAGGCAGGCUUCGGUGGCGCGAUAGCGCCAACGUCCUCAACCUCCAAUGCAUCCCACUACAUGAUGAUGCCUGAAGAGCCUUGGUUUUUUG [G10U C34G C102U] | -6.42
GACCAAUCUUCCCUCAGAGCUCGAGAACAUCUUCGGCUGCAGAGGAGGCAGGCUUCGGUGGCGCGAUAGCGCCAACGUCCUCAACCUCCAAUGCAUCCCACCACAUGAUGAUUCCUGAAGAGCCUUGGAUUUUUG [G10U A37C G113U U129A] | -5.04
GACCAAUCUUCCCUCAGAGAUCGAGAACAUCUUCGGAUGCAGAGGAGGCAGGCUUCGGUGGCGCGAUAGCGCCAACGUCCUCAUCCUCCAAUGCAUCCCACCACAUGAUGAUGCCUGAAGAGCCUUGGUUCUUUG [G10U C20A A84U U131C] | -2.84
GACCAAUCUUCCCUCAGAGCUCGAGAACAUCUUCGGAUGUGGAGGCGGCAGGCUUCGGUGGCGUGAUAGCGCCAACGUCCUCAACCUCCAAUGCAUCCCACCACAUGAUGAUGCCUGAAGAGCCUUGGUUUUUUG [G10U C40U A41G A46C C64U] | -5.98
GACCAAUCUUCCCUCAGAGCUCGAGACCAUCUUCGGAUGCAGAGGAGGCAGGCUUCGGUGGCGCGAUAGCGCCAACGUCCUCAACCUCCAAUGCAUCCCACCACAUGAUGACGCCUGAAGAGCCUUGGUUUUUUG [G10U A27C U112C] | -1.73
GACCAAUCUUCCUUCAGAGCUCGAGAACAUCUUCGGAUGCAGAGGAGGCAGGCUUCGGUCGCGCGAUAGCGCCAACGUCCUCAACCUCCAAUGCAUCCCACCACAUAAUGACGCCUGAAGAGCCUUUGUUUUUUG [G10U C13U G60C G107A U112C G127U] | -4.55
GACCAAUCUUCCCUCAGAGCUCGAGAACAUCUUCGGAUGCAGAGGAGGCAGGAUUCGGUGGCGCGAUAGCGCCAACCACCUCAACCUCCAAUGCAUCCCACCACAUCAUGAUGCCUGAAGUGCCUUGGUUUUUUG [G10U C53A G77C U78A G107C A121U] | -4.29
GACCAAUCUUCCCUCAGAGGUCGAGAACAUCUUCGGAUGCAGAGGAGGCAGGCUUCGGUGGCGCGAUAGCGCCAACGUCCUCAACCUCCAAUGCAUCCUACCACAUGAUGAUGCUUGAAGAGCCUUGGUUUUUUG [G10U C20G C99U C115U] | -8.2
GACCAAUCUUCCCUCAGAGCUCGAGAACAUCUUCGGAUGCAGAGGAGGCAGGCUUCGGUGGCGCGAUAGCGCGAACGUCCUCAACCUCCAAUGCAUCCCACCACAUGAUGAUGCCUGAAGAGCCUUGGUUUUUUG [G10U C73G] | -0.976
GACCAAUCUUCCCUCAGAGUUCGAGAACAUCAUCGGAUGCAGAGGAGGCAGGCUUCGGUGGCGCGAUAGCGCCAACGUCCUCAUCCUCCAAUGCAUCCCACCAAAUGAUGAUGCCUGAAGAGCCUUGGUUUUUUG [G10U C20U U32A A84U C104A] | -3.8
GACCAAUCUUCCCUCAGAGCUCGGGAACAUCUUCGGAUGCAGAGGAGGCAGGCUUCGCUGGCGCGAUAGCGCCAACGUUCUCAACCUCCAAUGCAUCCCACCACAUGAUGAUGCCUGAAGAGCCUUGGUUUUUUG [G10U A24G G58C C79U] | -2.27
GACCAAUCUUCCCUCAGAGCUCGAGAACAUCUUCGGAUGCAGAGGAGGCAGGCUUAGGCGGCGCGAUAGCGCCAACGUCCUCAACCUCCAAUGCAUCCCACCACAUGAUGAAGCCUGAAGAGCCUUGGUUUUUUG [G10U C56A U59C U112A] | -0.649
GACCAAUCUUCCCUCAGAGCUCGAGAACAUCUUCGGAUGCAGAGGCGGCAGGCUUCGGUGGCGCGAUAGCGCCAACGUCCUCAACCUCCAAUGCAUCCCACCACAUGAUGAUGCCUGAAGAGCCUUGGUUUUUUG [G10U A46C] | -0.286
GACCAAUCUUCCCUCAGAGCUCGAGAACAUCUUCGGAUGGAGAGGAGGCAGGCUUCGGUGGCGCGAUAGCGCCAACGUCCUCAACCUCCAAUGCAUCCCACCACAUGAUGAUGCCUGAAGAGCCUUGGUUUUUUG [G10U C40G] | -0.556
GACCAAUCUUCCCUCAGAGCUCGAGAAGAUCUUCGGAUGCAGAGGUGGCAGACUUCGGUGGCACGAUAGCGCCAACGUCCUCAACCCCCAAUGCAUCCCACCACAUGAUGAUGCCUGAAGAGCCUUGGUUUUUUG [G10U C28G A46U G52A G63A U87C] | -5.27
GACCAAUCUUCCCUCAGAGCUUGAGAACAUCUUCGGAUGCAGAGGAAGCAGGCUUCGGUGGCCCGAUAGCGCCAACGUCCUCAACCUCCAAUGCAACCCACCACAUGAUGAUGCCUGAAGAGACUUGGUUUUUUG [G10U C22U G47A G63C U96A C123A] | -5.69

Reference: the RNAGym collection of RNA variant scans (doi:10.1073/pnas.2313332121)
